From patent US20190375823A1 come the findings set out here.

The target in assay [1] is CD19 on Raji B cells (UniProt P15391). As to the kind of experiment: cell-based or functional assay.
Assay [2] concerns the target CD3 on Jurkat T cells (UniProt P07766). As to the kind of experiment: cell-based or functional assay.
Assay [3] deals with HER2 and HER3 on cells (MALME-3M or SKOV cells). As to the kind of experiment: FACS; column head prints Bmax (MALME 20120603). The arrangement: unit not given here. (In flow cytometry, cells or beads pass a laser one at a time.)
For assay [4] the target is unchanged. The assay is described as follows: FACS on SKOV-3 cells, FITC-labeled anti-HSA detection.
Assay [5] shares this target. As to the kind of experiment: FACS on MALME-3M cells (2012529), FITC-labeled anti-HSA antibodies.
For assay [6] the target is unchanged. The assay is described as follows: FACS on SKOV cells (20120803), FITC-labeled anti-HSA antibodies; apparent Kd.
Assay [7] shares this target. As to the kind of experiment: FACS on MALME-3M cells (20120529), FITC-labeled anti-HSA antibodies; apparent Kd.
The target is the same in assay [8]. As to the kind of experiment: FACS on MALME-3M cells, FITC-labeled anti-HSA antibodies; lower end of the range.
For assay [9] the target is unchanged. As to the kind of experiment: FACS on MALME-3M cells, FITC-labeled anti-HSA antibodies; upper end of the range.

Sequence of CD3 on Jurkat T cells (P07766 23-207): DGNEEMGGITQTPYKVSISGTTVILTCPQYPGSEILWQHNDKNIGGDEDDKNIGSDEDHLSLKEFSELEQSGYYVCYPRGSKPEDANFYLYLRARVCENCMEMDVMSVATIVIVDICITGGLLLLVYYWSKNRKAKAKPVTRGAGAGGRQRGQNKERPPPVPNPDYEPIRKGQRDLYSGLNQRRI
Sequence of CD19 on Raji B cells (P15391 20-556 limits assumed): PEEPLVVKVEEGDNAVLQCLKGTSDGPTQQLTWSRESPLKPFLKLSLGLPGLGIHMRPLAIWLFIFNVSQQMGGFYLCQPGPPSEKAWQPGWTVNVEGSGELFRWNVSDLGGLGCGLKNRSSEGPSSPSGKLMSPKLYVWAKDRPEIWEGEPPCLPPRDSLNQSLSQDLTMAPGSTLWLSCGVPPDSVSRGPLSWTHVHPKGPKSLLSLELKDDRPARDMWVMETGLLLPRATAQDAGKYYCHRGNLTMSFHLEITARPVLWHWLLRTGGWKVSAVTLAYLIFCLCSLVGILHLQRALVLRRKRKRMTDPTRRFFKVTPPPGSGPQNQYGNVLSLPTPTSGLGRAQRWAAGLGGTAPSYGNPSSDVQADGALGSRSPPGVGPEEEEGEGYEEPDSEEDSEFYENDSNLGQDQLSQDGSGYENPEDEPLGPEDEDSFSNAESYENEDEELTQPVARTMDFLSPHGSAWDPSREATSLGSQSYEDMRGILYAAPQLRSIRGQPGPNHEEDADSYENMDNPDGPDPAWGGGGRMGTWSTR

On to “v891: anti-CD3xCD19 BiTE control (bispecific antibody)”, for which the Whole cell bridging by FACS (Jurkat-violet + RAJI-FarRed): % of events labeled both violet and Far-red; needs binding of both CD3 and CD19 (% of total cells) in assay [1] and in assay [2] was 21 each time.
As a reminder, the EC50 (read off the curve) is the concentration needed to bring the measured effect to its halfway point. Regarding “v1087: benchmark control variant of MM-111 (anti-Her3 H3 scFv - AAS - albumin - AAAL - anti-Her2 B1D2 scFv) (bispecific antibody)”, the values for the Bmax in [3] and in assay [5] were 6580 and 1470, respectively. Besides, the concentration giving a half-maximal response (EC50 (read off the curve)) in assay [4] was determined as 10 nM. Also, the Kd was 10.7 nM in assay [6], 12000 nM in assay [7], 5 nM in [8] and 55 nM in assay [9].
